Results: patent US20180155451A1 (published 2018)
Numbering of substitutions follows the chain as printed. Names and notes keep the numbering of the source.

T1: FcgRIIb (human, UniProt P31994 43-217)
T1 construct: extracellular domain; also called FcγRIIb; not shown: His tag attached to the C terminus
T1 sequence (looked up): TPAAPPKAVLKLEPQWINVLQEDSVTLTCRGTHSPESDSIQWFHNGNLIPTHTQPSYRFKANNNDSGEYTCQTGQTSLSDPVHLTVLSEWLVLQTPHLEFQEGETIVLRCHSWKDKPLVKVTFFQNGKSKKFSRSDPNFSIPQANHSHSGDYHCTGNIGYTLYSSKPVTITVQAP

T2: FcgRIIa R (human, UniProt P12318 34-217)
T2 construct: extracellular domain; also called FcγRIIa R; FcγRIIa type R; not shown: His tag attached to the C terminus
T2 sequence (looked up): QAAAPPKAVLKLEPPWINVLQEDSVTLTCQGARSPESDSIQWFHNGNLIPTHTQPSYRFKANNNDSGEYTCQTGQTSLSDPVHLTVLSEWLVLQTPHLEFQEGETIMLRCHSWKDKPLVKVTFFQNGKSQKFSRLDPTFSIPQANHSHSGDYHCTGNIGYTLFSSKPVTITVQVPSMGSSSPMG

T3: FcgRIIa H (human, UniProt P12318 34-217)
T3 construct: extracellular domain; also called FcγRIIa H; FcγRIIa type H; not shown: His tag attached to the C terminus
T3 sequence (looked up): T2 sequence (looked up) with R134H

B1: H240-Kn061 (Y235A)/H240-Hl071/L73-k0 (antibody, human IgG1, kappa)
heavy 1: QDQLVQSGAEVKKPGASVKVSCKASGFNIKDTYIQWVRQAPGQGLEWMGRIDPLRKQTKYREKFEGRVTITADTSTNTAYMELSSLRSEDTAVYYCVRSGREFDYWGQGTLVTVSSASTKGPSVFPLAPSSKSTSGGTAALGCLVKDYFPEPVTVSWNSGALTSGVHTFPAVLQSSGLYSLSSVVTVPSSSLGTQTYICNVNHKPSNTKVDKKVEPKSCDKTHTCPPCPAPEYAWGPSVFLFPPKPKDTLMISRTPEVTCVVVDVSDEDPEVKFNWYVDGVEVHNAKTKPREEQYNATYRVVSVLTVLHQDWLNGKEYKCKVSNKALPAPIEKTISKAKGQPREPQVCTLPPSRDELTKNQVSLWCLVKGFYPSDIAVEWESNGQPENNYKTTPPVLDSDGSFFLYSKLTVDKSRWQQGNVFSCSVMHEALHNHYTQKSLSLSP
heavy 2: QDQLVQSGAEVKKPGASVKVSCKASGFNIKDTYIQWVRQAPGQGLEWMGRIDPLRKQTKYREKFEGRVTITADTSTNTAYMELSSLRSEDTAVYYCVRSGREFDYWGQGTLVTVSSASTKGPSVFPLAPSSKSTSGGTAALGCLVKDYFPEPVTVSWNSGALTSGVHTFPAVLQSSGLYSLSSVVTVPSSSLGTQTYICNVNHKPSNTKVDKKVEPKSCDKTHTCPPCPAPELLGGPSVFLFPPKPKDTLMISRTPEVTCVVVDVSHEDPEVKFNWYVDGVEVHNAKTKPREEQYNSTYRVVSVLTVLHQDWLNGKEYKCKVSNDALPMPIEETISKAKGQPREPQVYTLPPSRCELTKNQVSLSCAVKGFYPSDIAVEWESNGQPENNYKTTPPVLDSDGSFFLVSKLTVDKSRWQQGNVFSCSVMHEALHNHYTQKSLSLSP
light: DIQMTQSPSSLSASVGDRVTITCRASQDIHKYIAWYQQKPGQAPRLLIQYTSTLQPGVPSRFSGSGSGTDYTFTISSLQPEDIATYYCLQYEQLRTFGGGTKVEIKRTVAAPSVFIFPPSDEQLKSGTASVVCLLNNFYPREAKVQWKVDNALQSGNSQESVTEQDSKDSTYSLSSTLTLSKADYEKHKVYACEVTHQGLSSPVTKSFNRGEC
B2: H240-Kn061/H240-Hl071 (F241N)/L73-k0 (antibody, human IgG1, kappa)
heavy 1: B1 heavy 1 with A234Y
heavy 2: B1 heavy 2 with F240N
light: B1 light
B3: H240-Kn061 (S239I)/H240-Hl071/L73-k0 (antibody, human IgG1, kappa)
heavy 1: B1 heavy 1 with A234Y, S238I
heavy 2: B1 heavy 2
light: B1 light
B4: H240-Kn061 (S239M)/H240-Hl071/L73-k0 (antibody, human IgG1, kappa)
heavy 1: B1 heavy 1 with A234Y, S238M
heavy 2: B1 heavy 2
light: B1 light
B5: H240-Kn061 (Y234L)/H240-Hl071/L73-k0 (antibody, human IgG1, kappa)
heavy 1: B1 heavy 1 with Y233L, A234Y
heavy 2: B1 heavy 2
light: B1 light
B6: H240-Kn061 (A231E)/H240-Hl071/L73-k0 (antibody, human IgG1, kappa)
heavy 1: B1 heavy 1 with A230E, A234Y
heavy 2: B1 heavy 2
light: B1 light
B7: H240-Kn061 (Y234I)/H240-Hl071/L73-k0 (antibody, human IgG1, kappa)
heavy 1: B1 heavy 1 with Y233I, A234Y
heavy 2: B1 heavy 2
light: B1 light
B8: H240-Kn061 (S239V)/H240-Hl071/L73-k0 (antibody, human IgG1, kappa)
heavy 1: B1 heavy 1 with A234Y, S238V
heavy 2: B1 heavy 2
light: B1 light
B9: H240-Kn061 (A231Q)/H240-Hl071/L73-k0 (antibody, human IgG1, kappa)
heavy 1: B1 heavy 1 with A230Q, A234Y
heavy 2: B1 heavy 2
light: B1 light
B10: H240-Kn061 (A231V)/H240-Hl071/L73-k0 (antibody, human IgG1, kappa)
heavy 1: B1 heavy 1 with A230V, A234Y
heavy 2: B1 heavy 2
light: B1 light
B11: H240-Kn061 (S239L)/H240-Hl071/L73-k0 (antibody, human IgG1, kappa)
heavy 1: B1 heavy 1 with A234Y, S238L
heavy 2: B1 heavy 2
light: B1 light
B12: H240-Kn061/H240-Hl071 (V240H)/L73-k0 (antibody, human IgG1, kappa)
heavy 1: B1 heavy 1 with A234Y
heavy 2: B1 heavy 2 with V239H
light: B1 light

target: T1, FcgRIIb; assay: SPR (Biacore); KD of H240-Kn061/H240-Hl071/L73-k0 divided by KD of the variant

B1 was tested, and the “Relative KD” value was 0.2.

target: T4, FcgRIIIa F (human, UniProt P08637 17-208); assay: as above
T4 construct: extracellular domain; also called FcγRIIIa F; 3aF; not shown: His tag attached to the C terminus
T4 sequence (P08637 17-208): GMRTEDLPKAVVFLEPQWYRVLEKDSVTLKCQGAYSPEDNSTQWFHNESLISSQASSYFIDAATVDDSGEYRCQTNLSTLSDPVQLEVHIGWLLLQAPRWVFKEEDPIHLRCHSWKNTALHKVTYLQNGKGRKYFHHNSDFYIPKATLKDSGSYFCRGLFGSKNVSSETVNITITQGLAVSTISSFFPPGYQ

In the case of B1, the “Relative KD” value is reported as 1.2.

target: T5, FcgRIIIa V (human, UniProt P08637 17-208); assay: as above
T5 construct: extracellular domain; also called FcγRIIIa V; not shown: His tag attached to the C terminus
T5 sequence (P08637 17-208 F176V limits assumed): as the sequence (P08637 17-208) above, with F160V counted along it

For B1, the “Relative KD” value was 1.3.

target: T2, FcgRIIa R; assay: as above
Procedure: (§1) The antibodies were assessed for the binding to each FcgR. […] The resultant value was defined as relative KD, and used as an assessment indicator.
(§2) Analysis of interaction between obj ective antibody and the FcγR was carried out using Biacore T100 (GE Healthcare), Biacore T200, Biacore A100, and Biacore 4000. HBS-EP+ (GE Healthcare) was used as the running buffer, and the measurement temperature was set to 25° C. Chips produced by immobilizing the antigen peptide by the amine coupling method to a Series S sensor Chip CM5 (GE Healthcare), chips produced by allowing preliminarily biotinylated antigen peptides to interact with and immobilize onto a Series S Sensor Chip SA (certified) (GE Healthcare), chips produced by immobilizing Protein L (ACTIGEN, BioVision) to Series S Sencor Chip CM5 (GE Healthcare), or chips produced by immobilizing Protein A/G (Thermo Scientific) to Series S Sencor Chip CM5 (GE Healthcare) were used. Antibodies of interest were captured onto these chips, and allowed to interact to each FcγR diluted with running buffer.

Compared with B1, B2 is higher in “Relative KD” value: 0.5 for the first, 3.8 for the second.

Compared with B3, B4 is lower in “Relative KD” value: 4.4 for the first, 3.2 for the second.

First: B5
Second: B6
The “Relative KD” value of the first is higher: 2.2 for the first, 1.7 for the second.

Compared with B7, B8 is higher in “Relative KD” value: 4.1 for the first, 4.2 for the second.

Compared with B9, B10 is higher in “Relative KD” value: 1.5 for the first, 1.6 for the second.

First: B11
Second: B12
The “Relative KD” value of the first is higher: 4.8 for the first, 0.7 for the second.

target: T3, FcgRIIa H; assay: as above
Procedure: as §1, §2

Compared with B1, B2 is higher in “Relative KD” value: 0.5 for the first, 3.5 for the second.

Compared with B3, B4 is lower in “Relative KD” value: 2.1 for the first, 2 for the second.

Compared with B5, B6 is higher in “Relative KD” value: 1.5 for the first, 1.6 for the second.

Going from B7 to B8, the “Relative KD” value falls from 2.6 to 2.4.

Going from B9 to B10, the “Relative KD” value rises from 1.5 to 1.6.

Going from B11 to B12, the “Relative KD” value falls from 2.4 to 0.8.

target: T1, FcgRIIb; assay: as above; remark: another data set of the same source
Procedure: as §1, §2

Compared with B1, B2 is higher in “Relative KD” value: 0.2 for the first, 1.1 for the second.

First: B3
Second: B4
The “Relative KD” value of the first is higher: 3.1 for the first, 2.2 for the second.

Compared with B5, B6 is lower in “Relative KD” value: 3.5 for the first, 1.4 for the second.

Compared with B7, B8 is lower in “Relative KD” value: 7.7 for the first, 3.4 for the second.

Going from B9 to B10, the “Relative KD” value rises from 1.4 to 1.6.

First: B11
Second: B12
The “Relative KD” value of the first is higher: 3.4 for the first, 0.3 for the second.

target: T4, FcgRIIIa F; assay: as above; remark: another data set of the same source
Procedure: as §1, §2

Compared with B1, B2 is lower in “Relative KD” value: 1.2 for the first, 0.8 for the second.

Compared with B3, B4 is lower in “Relative KD” value: 3 for the first, 2.2 for the second.

Compared with B5, B6 is higher in “Relative KD” value: 1.1 for the first, 1.8 for the second.

First: B7
Second: B8
The “Relative KD” value of the first is lower: 1.2 for the first, 2.4 for the second.

Compared with B9, B10 is lower in “Relative KD” value: 1.5 for the first, 1.3 for the second.

First: B11
Second: B12
The “Relative KD” value of the first is higher: 3.4 for the first, 1.3 for the second.

target: T5, FcgRIIIa V; assay: as above; remark: another data set of the same source
Procedure: as §1, §2

Going from B1 to B2, the “Relative KD” value falls from 1.3 to 0.7.

First: B3
Second: B4
The “Relative KD” value of the first is higher: 3.4 for the first, 2.8 for the second.

First: B5
Second: B6
The “Relative KD” value of the first is lower: 1.2 for the first, 2 for the second.

First: B7
Second: B8
The “Relative KD” value of the first is lower: 1.3 for the first, 2.9 for the second.

Going from B9 to B10, the “Relative KD” value falls from 1.7 to 1.5.

First: B11
Second: B12
The “Relative KD” value of the first is higher: 3.7 for the first, 1 for the second.
